# T1: virus-like particles (VLPs) of BK polyomavirus VP-1 protein, serotype Ib2 (BK virus (BKPyV), serotype Ib2, PA …, UniProt P03088 1-362)
# T1 construct: native VLPs; also the immunogen; also called VLP Ib2; BK Ib2
# T1 chain: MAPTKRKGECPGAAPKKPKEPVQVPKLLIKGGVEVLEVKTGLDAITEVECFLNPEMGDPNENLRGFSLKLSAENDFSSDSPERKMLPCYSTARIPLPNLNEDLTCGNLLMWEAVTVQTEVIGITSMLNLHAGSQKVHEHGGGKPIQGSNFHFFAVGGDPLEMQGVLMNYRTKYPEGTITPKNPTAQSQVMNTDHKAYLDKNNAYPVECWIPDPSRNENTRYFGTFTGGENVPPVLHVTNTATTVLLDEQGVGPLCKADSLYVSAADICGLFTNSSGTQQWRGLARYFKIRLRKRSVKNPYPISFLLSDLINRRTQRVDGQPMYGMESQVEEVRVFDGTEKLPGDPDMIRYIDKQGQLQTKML
# T2: virus-like particles (VLPs) of BK polyomavirus VP-1 protein, serotype Ia (BK virus (BKPyV), serotype Ia, UniProt P03088 1-361)
# T2 construct: self-assembled native VLPs coated on ELISA plates; also called VLP Ia; BKV VP-1, serotype Ia
# T2 chain: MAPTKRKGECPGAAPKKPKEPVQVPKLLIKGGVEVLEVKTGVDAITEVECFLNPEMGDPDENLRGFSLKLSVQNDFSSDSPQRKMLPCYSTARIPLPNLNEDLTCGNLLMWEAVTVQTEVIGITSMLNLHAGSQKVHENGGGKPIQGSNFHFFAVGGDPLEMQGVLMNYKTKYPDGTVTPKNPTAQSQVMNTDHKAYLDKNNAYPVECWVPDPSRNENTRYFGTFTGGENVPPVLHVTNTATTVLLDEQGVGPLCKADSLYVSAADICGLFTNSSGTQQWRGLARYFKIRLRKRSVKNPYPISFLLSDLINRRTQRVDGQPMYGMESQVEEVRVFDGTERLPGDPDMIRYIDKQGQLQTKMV
# T3: virus-like particles (VLPs) of BK polyomavirus VP-1 protein, serotype II (BK virus (BKPyV), serotype II, UniProt P14996 1-362)
# T3 construct: native VLPs; also called VLP II
# T3 chain: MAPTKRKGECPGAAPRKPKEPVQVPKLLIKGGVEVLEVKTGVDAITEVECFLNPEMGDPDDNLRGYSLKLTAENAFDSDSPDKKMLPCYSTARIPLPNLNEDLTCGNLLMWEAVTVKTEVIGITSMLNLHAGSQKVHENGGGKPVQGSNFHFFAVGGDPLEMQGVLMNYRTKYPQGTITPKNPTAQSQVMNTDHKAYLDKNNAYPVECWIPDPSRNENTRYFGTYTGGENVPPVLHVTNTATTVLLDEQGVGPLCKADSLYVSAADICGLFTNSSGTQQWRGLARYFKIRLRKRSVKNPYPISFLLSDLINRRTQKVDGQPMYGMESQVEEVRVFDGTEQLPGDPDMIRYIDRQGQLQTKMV
# T4: virus-like particles (VLPs) of BK polyomavirus VP-1 protein, serotype IV (BK virus (BKPyV), serotype IV, UniProt P14996 1-362)
# T4 construct: native VLPs; also called VLP IV
# T4 chain: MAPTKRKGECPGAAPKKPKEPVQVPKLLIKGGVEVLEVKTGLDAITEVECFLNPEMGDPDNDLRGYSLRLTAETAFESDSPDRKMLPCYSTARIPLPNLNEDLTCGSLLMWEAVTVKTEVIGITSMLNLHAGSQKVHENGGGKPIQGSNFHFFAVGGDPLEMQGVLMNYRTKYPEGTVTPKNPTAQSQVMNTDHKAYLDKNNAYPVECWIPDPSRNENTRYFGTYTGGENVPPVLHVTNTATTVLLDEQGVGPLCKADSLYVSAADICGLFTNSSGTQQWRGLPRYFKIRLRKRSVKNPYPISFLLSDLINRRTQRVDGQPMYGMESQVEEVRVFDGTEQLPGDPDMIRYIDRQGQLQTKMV
# What was measured:
# [1] = target: T1, virus-like particles (VLPs) of BK …; assay: ELISA on not denatured VLP (threshold OD>0.5)
# Experimental: The wells were then blocked for 1 hour at +37° C. with a PBS/SVF mixture. After dilution in a dilution buffer containing SVF, PBS and Tween® 20, the individual culture supernatants or purified antibodies were added for 1 hour at +37° C. The wells were washed four times in a row with Wash Buffer and a secondary anti-mouse peroxidase antibody was added to the 1/2000 dilution for 1 hour at +37° C. The wells were washed again four times in a row and the substrate was added for 30 minutes at room temperature. A stop solution was added and then each well was read by measuring the absorbance at 492 nm with a spectrophotometer. The value obtained for the average of the control wells (PBS in the first step) was subtracted from the optical density values obtained for each well (detection threshold: OD>0.5).
# [2] = target: T2, virus-like particles (VLPs) of BK …; assay: ELISA on coated VLP; supernatant 1/40
# Experimental: (§1) To do this, the VLPs produced were deposited at a concentration of 1 μg/mL in PBS and incubated overnight at +4° C. The wells were then blocked for 1 h at +37° C. with a PBS/FCS (phosphate-buffered saline/fetal calf serum) mixture. After dilution in a dilution buffer containing FCS, PBS and Tween® 20, the various hybridoma culture supernatants were added for 1 h at +37° C. The wells were washed four times in a row with Wash Buffer and a secondary anti-mouse antibody coupled to peroxidase was added to the 1:2000 dilution for 1 h at +37° C. The wells were washed four more times and the substrate (OPD (ortho phenylene diamine)+H₂O₂) was added for 30 min at room temperature. A stop solution (H₂SO₄ 4N) was then added and each well was read by measuring the absorbance at 492 nm with a spectrophotometer. The value obtained for the average of the control wells (PBS in the first step) is subtracted from the optical density values obtained for each well.
# [3] = target: T1, virus-like particles (VLPs) of BK …; assay: ELISA on coated VLP; supernatant 1/40
# Experimental: as §1
# [4] = target: T3, virus-like particles (VLPs) of BK …; assay: ELISA on coated VLP; supernatant 1/40
# Experimental: as §1
# [5] = target: T4, virus-like particles (VLPs) of BK …; assay: ELISA on coated VLP; supernatant 1/40
# Experimental: as §1
# [6] = target: T2, virus-like particles (VLPs) of BK …; assay: ELISA on coated VLP; supernatant 1/80
# Experimental: as §1
# [7] = target: T1, virus-like particles (VLPs) of BK …; assay: ELISA on coated VLP; supernatant 1/80
# Experimental: as §1
# [8] = target: T3, virus-like particles (VLPs) of BK …; assay: ELISA on coated VLP; supernatant 1/80
# Experimental: as §1
# [9] = target: T4, virus-like particles (VLPs) of BK …; assay: ELISA on coated VLP; supernatant 1/80
# Experimental: as §1
# [10] = target: T2, virus-like particles (VLPs) of BK …; assay: ELISA on coated VLP; supernatant 1/160
# Experimental: as §1
# [11] = target: T1, virus-like particles (VLPs) of BK …; assay: ELISA on coated VLP; supernatant 1/160
# Experimental: as §1
# [12] = target: T3, virus-like particles (VLPs) of BK …; assay: ELISA on coated VLP; supernatant 1/160
# Experimental: as §1
# [13] = target: T4, virus-like particles (VLPs) of BK …; assay: ELISA on coated VLP; supernatant 1/160
# Experimental: as §1
Binder,OD 492 nm [1] [OD],OD 492 nm [2] [OD],OD 492 nm [3] [OD],OD 492 nm [4] [OD],OD 492 nm [5] [OD],OD 492 nm [6] [OD],OD 492 nm [7] [OD],OD 492 nm [8] [OD],OD 492 nm [9] [OD],OD 492 nm [10] [OD],OD 492 nm [11] [OD],OD 492 nm [12] [OD],OD 492 nm [13] [OD]
"monoclonal antibody ‘18A2’ derived from hybridoma 18A2 (antibody, V domains shown, Mouse hybridoma antibody) VH: DVQLQESGPGLVKPSQSLSLTCSVTGYSITSGYYWNWIRQFPGNKLEWMGYISYDGSNNYNPSLKNRISITRDTSKNQFFLKLNSVTTEDTATYYCARWEGTTDYWGQGTTLTVSS VL: not shown",0.565,,,,,,,,,,,,
monoclonal antibody ‘F6’ secreted by clone BK6A2F6 (antibody) heavy: EVQLQQSGPELVKPGASVKISCKASGYSFTGYFMNWVKQSHGKSLEWIGRINPYNGDTFYNQKFKGKATLTVDKSSSTAHMELLSLTSEDSAVYYCGSYYYGDYFDYWGQGTTLTVSSAKTTPPSVYPLAPGSAAQTNSMVTLGCLVKGYFPEPVTVTWNSGSLSSGVHTFPAVLQSDLYTLSSSVTVPSSTWPSETVTCNVAHPASSTKVDKKIVPRDCGCKPCICTVPEVSSVFIFPPKPKDVLTITLTPKVTCVVVDISKDDPEVQFSWFVDDVEVHTAQTQPREEQFNSTFRSVSELPIMHQDWLNGKEFKCRVNSAAFPAPIEKTISKTKGRPKAPQVYTIPPPKEQMAKDKVSLTCMITDFFPEDITVEWQWNGQPAENYKNTQPIMDTDGSYFVYSKLNVQKSNWEAGNTFTCSVLHEGLHNHHTEKSLSHSPGK light: […],2.7,3.16,1.03,0.9,3.19,3.26,0.59,0.44,3.11,3.21,0.4,0.27,3.46
"monoclonal antibody ‘H6’ secreted by clone BK6A2H6 (antibody, V domains shown) VH: EVQLQQSGPELVKPGASVKISCKASGYSFTGYFMNWVKQSHGKSLEWIGRINPYNGDTFYNQKFKGKATLTVDKSSSTAHMELLSLTSEDSAVYYCGSYYYGDYFDYWGQGTTLTVSS VL: SIVMTQIPKFLLVSEGDRVTITCKASQSVSNDVAWYQQKSGQSPKLLIYYASNRYTGVPDRFTGSGYGTDFTFTISTVQAEDLAVYFCQQDYSSPLTFGAGTKLELKR",,3.18,0.67,0.44,3.38,3.13,0.49,0.22,3.14,3.06,0.4,0.14,3.14

# — patent US20220396612A1 (UNIVERSIT DE TOURS, published 2022)
